# Data: patent US20080166343A1 (CSL, published 2008)
# B1: 10G5-3 (antibody, human IgG4 S228P, kappa, V domains shown)
# VH: EVQLVQSGAEVKKPGESLKISCKGSGYSFTSYWIGWVRQMPGKGLEWMGVIYPGDSYTRYSPSFQGQVTISADKSISTAYLQWSSLKASDTAMYYCARMPNWGSFDYWGQGTLVTVSS
# VL: EIVLTQSPGTLSLSPGERATLSCRASQSISSSYLAWYQQKPGQAPRLLIYGASSRATGIPDRFSGSGSGTDFTLTISRLEPEDFAVYYCQQYEAFGQGTKVEIKR
# Key:
# [1] = target: T1, human IL-13Rα1 on cells (NHDF cells; cells of whole human blood) (human, UniProt P78552 27-427); assay: cell-based or functional assay
# T1 sequence: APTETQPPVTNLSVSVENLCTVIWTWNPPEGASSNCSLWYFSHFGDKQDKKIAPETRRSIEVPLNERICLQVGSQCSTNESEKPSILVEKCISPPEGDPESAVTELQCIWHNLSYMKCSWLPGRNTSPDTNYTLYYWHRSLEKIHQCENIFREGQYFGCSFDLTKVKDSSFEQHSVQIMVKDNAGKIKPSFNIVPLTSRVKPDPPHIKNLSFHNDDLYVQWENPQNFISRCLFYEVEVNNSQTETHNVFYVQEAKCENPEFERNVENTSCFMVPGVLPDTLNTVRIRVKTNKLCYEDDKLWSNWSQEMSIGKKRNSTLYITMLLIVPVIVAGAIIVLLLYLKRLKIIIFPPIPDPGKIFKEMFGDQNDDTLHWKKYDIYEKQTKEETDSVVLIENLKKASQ
# [2] = target: T1, human IL-13Rα1 on cells (NHDF cells; …); assay: cell-based or functional assay; remark: listed apart in the source
binder,measurement,setting,value
B1,"EC50, inhibition of eotaxin release from NHDF cells upon stimulation by IL-13",[1],0.614 µg/mL
same,"EC50, inhibition of eotaxin release from NHDF cells upon stimulation by IL-4",[2],0.983 µg/mL
